50 sequences from the supplement of paper PMC10724198 can be followed below.

± gives the standard deviation of the averaged measurements.

This data set concerns Saccharomyces cerevisiae. The data set can be described thus: protein stability index of tFT-peptide fusion (C-terminal peptide) (PSI (0-1 scale)); higher = more stable (slower turnover). Conditions: temperature: 30 C. The method, then: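 MPS profiling in S. cerevisiae of the yeast C-terminome library: the last 12 aa of each annotated ORF are fused to the C-terminus of a sfGFP-mCherry timer, after a GGGS linker. Cells are FACS-sorted into 8 mCherry/sfGFP bins and deep-sequenced. PSI runs from 0 (unstable) to 1 (stable); wild type and das1Δ backgrounds, two technical replicates each.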

Setting [1] is: genetic background: das1 deletion.

Consider MSSFLSKKENNN [SNT1 C-terminal 12 aa], for which the protein stability index is 0.722 ± 0.024 under setting [1] and 0.6618 ± 0.005 (genetic background: wild type).
In the case of MTGTCFMTDLAP [YKL097C C-terminal 12 aa], the protein stability index worked out at 0.721 ± 0.024 under setting [1] and 0.695 ± 0.021 (genetic background: wild type).
Sequence MTLDSWQPLTPK [INP53 C-terminal 12 aa] displayed a protein stability index under setting [1] of 0.723 ± 0.016 and a protein stability index (genetic background: wild type) of 0.712 ± 0.03.
In turn, NEEYIEELDLVL [HSH155 C-terminal 12 aa] came in with a protein stability index under setting [1] of 0.696 ± 0.0089 and a protein stability index (genetic background: wild type) of 0.674 ± 0.015.
On to NFQTHYRDELLQ [REH1 C-terminal 12 aa], for which the protein stability index by setting is: under setting [1], 0.729 ± 0.054; (genetic background: wild type) 0.584 ± 0.016.
Turning to “NFVSQYRNDEIY [YOR381W-A C-terminal 12 aa]”, the protein stability index under setting [1] came out at 0.688 ± 0.032 and the protein stability index (genetic background: wild type) came to 0.659 ± 0.023.
Turning to NGHVSKKAKVTK [LYS21 C-terminal 12 aa], the protein stability index is 0.6885 ± 0.0043 under setting [1] and 0.667 ± 0.021 (genetic background: wild type).
The sequence NIAPFPFFGKRR [PMD1 C-terminal 12 aa] returned a protein stability index under setting [1] of 0.6837 ± 0.00075 and a protein stability index (genetic background: wild type) of 0.674 ± 0.02.
Turning to NIEKGVNFVASK [MDH1 C-terminal 12 aa], the protein stability index is, setting by setting: under setting [1], 0.6837 ± 0.0049; (genetic background: wild type) 0.677 ± 0.052.
With NIGDFSPDLMDS [MSS11 C-terminal 12 aa], the protein stability index is, setting by setting: under setting [1], 0.684 ± 0.011; (genetic background: wild type) 0.713 ± 0.0096.
Regarding NIKALNQSKSHM [SPO77 C-terminal 12 aa], the protein stability index under setting [1] is 0.684 ± 0.022 and the protein stability index (genetic background: wild type) is 0.6701 ± 0.003.
In the same order, the values of NKKPKNKKKGRK [SRP72 C-terminal 12 aa] are 0.6842 ± 0.005 and 0.646 ± 0.0076.
The sequence NKRLKKILNNTK [RME1 C-terminal 12 aa] returned a protein stability index under setting [1] of 0.702 ± 0.014 and a protein stability index (genetic background: wild type) of 0.674 ± 0.023.
In turn, NKVEAFKSLYTF [NUP60 C-terminal 12 aa] registered a protein stability index under setting [1] of 0.705 ± 0.028 and a protein stability index (genetic background: wild type) of 0.591 ± 0.013.
As for NLKNGVTLESPE [UBP12 C-terminal 12 aa], the protein stability index reads like this: under setting [1], 0.716 ± 0.01; (genetic background: wild type) 0.6889 ± 0.0028.
In the same order, the values of NLMVADDKVWRV [MCM3 C-terminal 12 aa] are 0.696 ± 0.017 and 0.7005 ± 0.0019.
With NLVASKQLSTYK [RAV2 C-terminal 12 aa], the protein stability index runs as follows: under setting [1], 0.694 ± 0.0082; (genetic background: wild type) 0.641 ± 0.031.
Consider NMLFICLNVPHY [YGL114W C-terminal 12 aa], for which the protein stability index by setting is: under setting [1], 0.6561 ± 0.0045; (genetic background: wild type) 0.632 ± 0.007.
As for NNASEDDRGIRV [STB2 C-terminal 12 aa], the protein stability index under setting [1] was 0.6973 ± 0.0012 and the protein stability index (genetic background: wild type) was 0.685 ± 0.089.
Consider NNIKWYLHWKFI [VPR1 C-terminal 12 aa], for which the protein stability index under setting [1] stood at 0.684 ± 0.033 and the protein stability index (genetic background: wild type) amounted to 0.168 ± 0.019.
Consider NNNMESFPEMSP [GLE1 C-terminal 12 aa], for which the protein stability index was 0.726 ± 0.013 under setting [1] and 0.72 ± 0.017 (genetic background: wild type).
In the same order, the values of NNNNNNNDDDDK [CTK1 C-terminal 12 aa] are 0.694 ± 0.021 and 0.691 ± 0.028.
As to NQAIQYANEFQQ [HOG1 C-terminal 12 aa], the protein stability index turned out to be 0.701 ± 0.022 under setting [1] and 0.715 ± 0.043 (genetic background: wild type).
On the same counts, the results for NQRKANDNKRRR [RRP17 C-terminal 12 aa] are 0.7188 ± 0.001 and 0.77 ± 0.058.
Regarding NQRSFNDKSKRD [CAX4 C-terminal 12 aa], the protein stability index is, setting by setting: under setting [1], 0.692 ± 0.009; (genetic background: wild type) 0.6901 ± 0.0064.
With NSFDGLLVYLSN [CBF2 C-terminal 12 aa], the protein stability index by setting is: under setting [1], 0.6572 ± 0.0033; (genetic background: wild type) 0.6615 ± 0.0065.
NSIVKQFKEIFK [AIM41 C-terminal 12 aa]: the protein stability index turned out to be 0.709 ± 0.028 under setting [1] and 0.67 ± 0.0096 (genetic background: wild type).
On to NSSSNESIQVVV [SFK1 C-terminal 12 aa], for which the protein stability index was 0.706 ± 0.043 under setting [1] and 0.696 ± 0.037 (genetic background: wild type).
For NTLRISTVGQEF [PYK2 C-terminal 12 aa], the protein stability index reads like this: under setting [1], 0.7106 ± 0.0029; (genetic background: wild type) 0.707 ± 0.0074.
In turn, NTSGQKPNEYNY [APA1 C-terminal 12 aa] returned a protein stability index under setting [1] of 0.7049 ± 0.0049 and a protein stability index (genetic background: wild type) of 0.698 ± 0.018.
Turning to NVGVIRPLLDLQ [YGR069W C-terminal 12 aa], the protein stability index runs as follows: under setting [1], 0.743 ± 0.026; (genetic background: wild type) 0.729 ± 0.015.
On the same counts, the results for NVTKLAKERVLF [CPA1 C-terminal 12 aa] are 0.6847 ± 0.0048 and 0.703 ± 0.055.
Sequence “NVYRLTLMIFRL [YMR013W-A C-terminal 12 aa]” displayed a protein stability index under setting [1] of 0.428 ± 0.016 and a protein stability index (genetic background: wild type) of 0.249 ± 0.0095.
In the same order, the values of “NWVRYSSIYYQL [YDR194W-A C-terminal 12 aa]” are 0.695 ± 0.013 and 0.14 ± 0.011.
On the same counts, the results for NYPELPRLTFST [RFU1 C-terminal 12 aa] are 0.704 ± 0.018 and 0.691 ± 0.0092.
For NYRLEEQDVLTW [LYS14 C-terminal 12 aa], the protein stability index is 0.721 ± 0.037 under setting [1] and 0.693 ± 0.058 (genetic background: wild type).
Take PAAISGTVPSIF [DIN7 C-terminal 12 aa]: the protein stability index was 0.715 ± 0.021 under setting [1] and 0.677 ± 0.017 (genetic background: wild type).
In the same order, the values of PAKFGIQFQYST [MDM10 C-terminal 12 aa] are 0.697 ± 0.021 and 0.662 ± 0.038.
Consider PCTASITSLISF [YDR269C C-terminal 12 aa], for which the protein stability index is 0.709 ± 0.012 under setting [1] and 0.731 ± 0.03 (genetic background: wild type).
Take PDEISFLQQFTS [KAP104 C-terminal 12 aa]: the protein stability index was 0.721 ± 0.0076 under setting [1] and 0.676 ± 0.023 (genetic background: wild type).
On the same counts, the results for PEAEGPTVEEVD [SSA1 C-terminal 12 aa] are 0.703 ± 0.02 and 0.694 ± 0.019.
On to PELSSTVSHNRA [WSC3 C-terminal 12 aa], for which the protein stability index reads like this: under setting [1], 0.693 ± 0.035; (genetic background: wild type) 0.783 ± 0.07.
PEMTRRGRGPRR [RPA49 C-terminal 12 aa]: the protein stability index was 0.714 ± 0.022 under setting [1] and 0.673 ± 0.033 (genetic background: wild type).
With PFPLLRLSAPFK [OST3 C-terminal 12 aa], the protein stability index by setting is: under setting [1], 0.72 ± 0.0091; (genetic background: wild type) 0.749 ± 0.061.
Consider PFPLPSTERVIF [ADY2 C-terminal 12 aa], for which the protein stability index under setting [1] was determined as 0.723 ± 0.02 and the protein stability index (genetic background: wild type) was 0.73 ± 0.023.
Take “PHYAGCLEDIIF [YER066C-A C-terminal 12 aa]”: the protein stability index was 0.719 ± 0.046 under setting [1] and 0.74 ± 0.035 (genetic background: wild type).
The sequence PIKEVLLENWDQ [PUS5 C-terminal 12 aa] displayed a protein stability index under setting [1] of 0.715 ± 0.017 and a protein stability index (genetic background: wild type) of 0.683 ± 0.024.
In the same order, the values of PIRTPDAKKPKI [BUR2 C-terminal 12 aa] are 0.715 ± 0.013 and 0.8 ± 0.13.
PIVHYISDRRTV [ARC15 C-terminal 12 aa] showed a protein stability index under setting [1] of 0.682 ± 0.013 and a protein stability index (genetic background: wild type) of 0.688 ± 0.0093.
With PKETLHRSDHQG [YPR039W C-terminal 12 aa], the protein stability index by setting is: under setting [1], 0.6938 ± 0.0051; (genetic background: wild type) 0.689 ± 0.076.
